Data reported in patent US10357573B2, “Block copolymer conjugate of physiologically active substance” (Nippon Kayaku Kabushiki Kaisha, priority 2015, dated 2019).
Like-named read-outs stand apart in the source and are kept apart here.

Tests used:
[1] = Light scattering intensity of 1 mg/mL aqueous solution, relative to toluene; format: physicochemical; settings: for relative ratio between the light scattering intensity and the light scattering intensity of toluene: 1 mg/mL aqueous solution vs standard toluene solution under the same conditions; for light scattering intensity of a 1 mg/mL aqueous solution: 1 mg/mL in ultrapure water, 25° C., wavelength 632.8 nm
Procedure: Regarding the measurement sample for the scattering intensity measurement, a solution obtained by adding ultrapure water to a physiologically active substance-conjugated block copolymer to obtain a concentration of 1 mg/mL, dissolving the block copolymer by irradiating the mixture with ultrasonic waves for 10 minutes under ice cooling, and then filtering the solution through a 0.2-μm membrane filter, was used.
Toluene (manufactured by Junsei Chemical Co., Ltd., special grade) that was used for the measurement of the light scattering intensity, was used after being filtered three times through a 0.2-μm membrane filter.

[2] = Test Example A-4 hematotoxicity test in non-tumor bearing rat; format: in vivo, Sprague-Dawley rats; settings: 40 mg/kg as converted to 7-ethyl-10-hydroxycamptothecin; for prolonged hematotoxicity: 7 days after administration; for Number of blood reticulocytes: iv once, 7th day after administration
From the text: The resultant solutions were used as analysis samples.

[3] = system: human stomach cancer SC-4-JCK; assay: Test Example A-5 antitumor effect in human stomach cancer-transplanted nude mouse; format: in vivo; settings: 12 mg/kg as converted to 7-ethyl-10-hydroxycamptothecin, iv once; for Relative tumor volume: 14th day after administration, day of administration = 1.0, average ± SD
Procedure: A tumor mass of human stomach cancer SC-4-JCK that had been subcutaneously subcultured in a nude mouse was cut into a block having a size of about 3 mm on each side, and this block was subcutaneously transplanted on the dorsal side of a nude mouse using a trocar.
A relative tumor volume was determined from the tumor volumes obtained on the day of administration and on the 14th day after the administration, and this was employed as an index for the antitumor effect. The tumor volume was determined by measuring the major axis (L: mm) and the minor axis (W: mm) of the tumor, and calculating the volume by the calculation formula: (L×W^2)/2.

[4] = Volume average particle diameter by dynamic light scattering; format: physicochemical; settings: device A, 1 mg/mL
Procedure: Measurement of the volume average particle diameters of the physiologically active substance-conjugated block copolymers of Examples and Comparative Examples was carried out using a ZetaPotential/Particlesizer NICOMP 380 ZLS (device A; temperature: 25° C.) manufactured by Particle Sizing Systems, LLC, or a particle size zeta potential analyzer, ZETASIZER NANO ZS (device B; measurement temperature: 25° C., analysis model: General Purpose (normal resolution), material RI: 1.59) manufactured by Malvern Instruments, Ltd. Regarding the volume average particle diameter measurement sample, a solution obtained by adding ultrapure water to a physiologically active substance-conjugated block copolymer to obtain a concentration of 1 mg/mL or 5 mg/mL, dissolving the block copolymer by irradiating the mixture with ultrasonic waves for 10 minutes under ice cooling, and then filtering the solution through a 0.2-μm membrane filter, was used.

[5] = Test Example A-3 hepatotoxicity test in non-tumor bearing mouse; format: in vivo, Crl:CD1(ICR)(ICR(IGS)) mice; parameters: ALT: unit not given here; settings: for ALT: iv once, blood plasma 3 days after administration; for hepatotoxicity: maximum tolerated dose iv once, 3 days after administration
Procedure: The blood plasma obtained by centrifuging the blood thus collected (4° C., 1600×g, 10 minutes) was used as a measurement sample, and a blood chemical examination of the measurement sample was performed using an automatic biochemical analysis apparatus Model 7180 (Hitachi High Technologies Corp.).

[6] = system: human lung cancer H460; assay: Test Example C-4 antitumor effect test in human lung cancer-transplanted nude mouse; format: in vivo; settings: for Relative tumor volume: iv once, 15th day after administration, day of administration = 1.0, average ± SD; for antitumor effect: compared to cabazitaxel 30 mg/kg
Procedure: A tumor mass of human lung cancer H460 that had been subcutaneously subcultured in a nude mouse was cut into a block having a size of about 3 mm on each side, and this block was subcutaneously transplanted on the dorsal side of a nude mouse using a trocar.
(§1) A relative tumor volume was determined from the tumor volumes obtained on the day of administration and on the 15th day after the administration, and this was employed as an index for the antitumor effect. The tumor volume was determined by measuring the major axis (L: mm) and the minor axis (W: mm) of the tumor, and calculating the volume by the calculation formula: (L×W^2)/2.

[7] = for Number of blood reticulocytes: 60 mg/kg as converted to cabazitaxel, iv once, 5th day after administration
Procedure: As a control group, a 5% glucose injection solution was intravenously administered once through the caudal vein.
Polysorbate 80 was added thereto in an amount equal to the amount of anhydrous ethanol, and the mixture was sufficiently mixed. This was used as a preparation stock solution.
After 3, 5, 7, 11, and 14 days from the day of administration of the various compounds, blood was collected through the subclavian vein without anesthesia using a 1-mL disposable syringe with a 26 G needle. About 3 μL of an EDTA-2K solution had been added in advance to the syringe, and this solution was sufficiently mixed with the blood thus collected. The resultant solutions were used as analysis samples. The blood samples were subjected to a blood cell analysis using a blood cell analysis apparatus XT-2000iV (Sysmex Corp.).

[8] = Maximum tolerated dose / maximum non-lethal dose, single intravenous administration; format: in vivo, mice; settings: iv once through the caudal vein; for maximum tolerated dose: as converted to cabazitaxel
[9] = system: human pancreatic cancer BxPC3; assay: Test Example C-3 antitumor effect test in human pancreatic cancer-transplanted nude mouse; format: in vivo; settings: for Relative tumor volume: iv once, 8th day after administration, day of administration = 1.0, average ± SD; for antitumor effect: compared to cabazitaxel 30 mg/kg
Procedure: A tumor mass of human pancreatic cancer BxPC3 that had been subcutaneously subcultured in a nude mouse was cut into a block having a size of about 3 mm on each side, and this block was subcutaneously transplanted on the dorsal side of a nude mouse using a trocar.
as §1, with “8th” for “15th”

[10] = dose 100 mg/kg as converted to 7-ethyl-10-hydroxycamptothecin (maximum tolerated dose)
[11] = 60 mg/kg as converted to cabazitaxel

Row | Compound | relative ratio between the light scattering intensity and the light scattering intensity of toluene [1] | light scattering intensity of a 1 mg/mL aqueous solution [1] | prolonged hematotoxicity [2] | Number of blood reticulocytes [2] | Relative tumor volume [3] | volume average particle diameter [4] | ALT [5, 10] | hepatotoxicity [5] | antitumor effect [6, 11] | Relative tumor volume [6, 11] | maximum tolerated dose [8] | antitumor effect [9, 11] | Relative tumor volume [9, 11] | also measured
1 | 7-ethyl-10-Hydroxycamptothecin (EHC) Conjugate of polyethylene glycol (5 Kilodaltons)-polyglutamic Acid (10.0 Polymer) Block Copolymer [Example A-3] | 3.0 times | 16,750 cps | prolonged hematotoxicity was not recognized | 54.29 ± 8.49 ×10^4/μL | 1.574 ± 0.388 | 8 nm |  |  |  |  |  |  |  | antitumor effect [3]: stronger antitumor effect compared to the Comparative Examples
2 | 7-ethyl-10-hydroxycamptothecin (EHC) Conjugate of polyethylene glycol (2 Kilodaltons)-polyglutamic Acid (7.6 Polymer) Block Copolymer [Example A-1] | 3.1 times | 17,070 cps | prolonged hematotoxicity was not recognized | 64.18 ± 4.43 ×10^4/μL | 2.466 ± 0.398 | 6 nm | 64 ± 25 | hepatotoxicity was negligible |  |  |  |  |  | 
3 | 7-ethyl-10-hydroxycamptothecin (EHC) Conjugate of polyethylene glycol (2 Kilodaltons)-polyglutamic Acid (10.0 Polymer) Block Copolymer [Example A-2] | 4.9 times | 27,149 cps |  |  | 2.593 ± 0.482 | 10 nm | 55 ± 54 | hepatotoxicity was negligible |  |  |  |  |  | 
4 | 7-ethyl-10-hydroxycamptothecin (EHC) Conjugate of polyethylene glycol (3 Kilodaltons)-polyglutamic Acid (6.6 Polymer) Block Copolymer [Comparative Example A-2, reference compound] | 1.80 times | 9,964 cps |  | 66.17 ± 7.74 ×10^4/μL | 2.426 ± 1.122 |  | 528 ± 681 | occurrence of hepatotoxicity was acknowledged |  |  |  |  |  | self-association in aqueous solution [1]: non-associating
5 | 7-ethyl-10-hydroxycamptothecin (EHC) Conjugate of polyethylene glycol (12 Kilodaltons)-polyglutamic Acid (7.5 Polymer) Block Copolymer [Comparative Example A-3] | 1.0 times | 5,625 cps |  |  |  |  |  | hepatotoxicity was clearly manifested |  |  |  |  |  | self-association in aqueous solution [1]: non-associating; ALT ([5]; dose 50 mg/kg as converted to 7-ethyl-10-hydroxycamptothecin (maximum tolerated dose)): 114 ± 68
6 | 7-ethyl-10-hydroxycamptothecin (EHC) Conjugate of polyethylene glycol (12 Kilodaltons)-polyglutamic Acid (25 Polymer) Block Copolymer [Comparative Example A-1, reference compound] | 7.5 times | 41,321 cps | prolonged hematotoxicity was recognized | 20.26 ± 11.50 ×10^4/μL | 2.232 ± 0.534 | 20 nm |  |  |  |  |  |  |  | 
7 | CO[C@H]1C(=O)[C@]2(C)[C@@H](OC)C[C@H]3OC[C@@]3(OC(C)=O)[C@H]2[C@H](OC(=O)c2ccccc2)[C@]2(O)C[C@H](OC(=O)[C@H](O)[C@@H](NC(=O)OC(C)(C)C)c3ccccc3)C(C)=C1C2(C)C [Cabazitaxel, reference compound] |  |  |  |  |  |  |  |  |  |  |  |  |  | Relative tumor volume ([6]; 30 mg/kg): 1.476 ± 0.509; prolonged hematotoxicity ([7]; mouse, in vivo): prolonged hematotoxicity was not recognized; maximum non-lethal dose [8]: 30 mg/kg; Relative tumor volume ([9]; 30 mg/kg): 1.19 ± 0.21
8 | Cabazitaxel (CBZ) Conjugate of polyethylene glycol (5 Kilodaltons)-α-polyaspartic Acid (20.0 Polymer) Block Copolymer [Example C-2] |  |  |  |  |  |  |  |  | stronger tumor proliferation suppressing action | 0.800 ± 0.371 | 60 mg/kg | stronger tumor proliferation suppressing action | 0.81 ± 0.17 | 
9 | Cabazitaxel (CBZ) Conjugate of polyethylene glycol (12 Kilodaltons)-α,β-polyaspartic Acid (23.8 Polymer) Block Copolymer [Comparative Example C-1, reference compound] |  |  |  |  |  |  |  |  | stronger tumor proliferation suppressing action | 0.484 ± 0.083 | 60 mg/kg | stronger tumor proliferation suppressing action | 0.78 ± 0.09 | Number of blood reticulocytes [7]: 18.49 ± 13.10 ×10^4/μL; prolonged hematotoxicity ([7]; 5 days after administration): prolonged hematotoxicity was recognized
10 | Cabazitaxel (CBZ) and n-butylamine Conjugate of polyethylene glycol (2 Kilodaltons)-α,β-polyaspartic Acid (12.5 Polymer) Block Copolymer [Example C-1] |  |  |  |  |  |  |  |  | stronger tumor proliferation suppressing action | 0.560 ± 0.201 | 60 mg/kg | stronger tumor proliferation suppressing action | 0.83 ± 0.10 | Number of blood reticulocytes [7]: 52.69 ± 13.95 ×10^4/μL; prolonged hematotoxicity ([7]; 5 days after administration): prolonged hematotoxicity was not recognized
